# B1: unconjugated antibody: unconjugated humanized C242 antibody, binds the CanAg antigen (antibody, chains of the INN, looked up, V domains shown)
# VH: QVQLVQSGAEVKKPGETVKISCKASDYTFTYYGMNWVKQAPGQGLKWMGWIDTTTGEPTYAQKFQGRIAFSLETSASTAYLQIKSLKSEDTATYFCARRGPYNWYFDVWGQGTTVTVSS
# VL: DIVMTQSPLSVPVTPGEPVSISCRSSKSLLHSNGNTYLYWFLQRPGQSPQLLIYRMSNLVSGVPDRFSGSGSGTAFTLRISRVEAEDVGVYYCLQHLEYPFTFGPGTKLELK
# Settings: mouse, in vivo, iv, 12 mg/kg
# Procedure: CD1 mice were injected intravenously, by a single bolus, of 5 mg/kg conjugates (antibody-based dose; 3 mice per group). Plasma samples were collected at several time points up to 4 weeks. The plasma samples were analyzed for antibody concentration and for conjugate concentration using ELISA. For antibody ELISA, the plasma samples were added to microtiter plates containing coated, immobilized goat-anti-human IgG (H+L) antibody, washed, and detected using horseradish peroxidase-conjugated goat-anti-human IgG (Fe) antibody. For conjugate concentration, the plasma samples were added to microtiter plates containing coated, immobilized goat-anti-human IgG (H+L) antibody, washed, and detected using biotinylated anti-maytansine antibody and alkaline phosphatase-conjugated streptavidin.
molecule,measurement,value
B1,area under the curve (AUC),38798 µg·h/mL

# Reference: patent US9150649B2, “Potent conjugates and hydrophilic linkers” (priority 2008, dated 2015)
